US20190144538A1 (TETRAGENETICS, published 2019)

B1: 19724p1.E6 (Fc fusion, not shown: small tags and cut ends; a dimerising Fc or GST)
scFv (part 1 of 2): ALTQPASVSANLGETVEITCSGGYSDDGSYYYGWYQQKSPGSAPVTVIYENNKRPSDIPSRFSGSLSGSTNTLTITGVRAEDEAVYYCGSWDSSAGIFGAGTTLTVL
scFv (part 2 of 2): MAAVTLDESGGGLQTPGGTLSLVCKASGFTFSSHGMQWVRQAPGKGLEWVAGISRDGSRTRYGAAVKGRATISRDNGQSTVRLQLNNLRAEDTAIYFCAKSAYECDGYSCWTFIAGSIDAWGHGTEVIVS
B2: 1A3 (Fc fusion, not shown: small tags and cut ends; a dimerising Fc or GST)
scFv (part 1 of 2): LDIQMTQSPSSVTASVGEKVTINCKSSQSVVSASNQKSYLNWYQQRPGQSPRLLIYYASTQELGIPDRFSGSGSTTDFTLTISSVQPEDAAVYYCQQAYSAPYNFGSGTRLEIK
scFv (part 2 of 2): QVQLQESGGGLVQPGGSLRLSCAASGFTFSINGMSWVRQAPGKEVEWVSSINSGGEITNYRDSVKGRFTISRDNVKNTLYLQMNSLKPEDTAFYHCVTGIVAYDYWGQGTQVTVSS

Columns and labels:
[1] = target: human Kv1.3 protein on cells (human, UniProt P22001 1-575); experiment: cell-based or functional assay
Chain of human Kv1.3 protein on cells (P22001 whole entry): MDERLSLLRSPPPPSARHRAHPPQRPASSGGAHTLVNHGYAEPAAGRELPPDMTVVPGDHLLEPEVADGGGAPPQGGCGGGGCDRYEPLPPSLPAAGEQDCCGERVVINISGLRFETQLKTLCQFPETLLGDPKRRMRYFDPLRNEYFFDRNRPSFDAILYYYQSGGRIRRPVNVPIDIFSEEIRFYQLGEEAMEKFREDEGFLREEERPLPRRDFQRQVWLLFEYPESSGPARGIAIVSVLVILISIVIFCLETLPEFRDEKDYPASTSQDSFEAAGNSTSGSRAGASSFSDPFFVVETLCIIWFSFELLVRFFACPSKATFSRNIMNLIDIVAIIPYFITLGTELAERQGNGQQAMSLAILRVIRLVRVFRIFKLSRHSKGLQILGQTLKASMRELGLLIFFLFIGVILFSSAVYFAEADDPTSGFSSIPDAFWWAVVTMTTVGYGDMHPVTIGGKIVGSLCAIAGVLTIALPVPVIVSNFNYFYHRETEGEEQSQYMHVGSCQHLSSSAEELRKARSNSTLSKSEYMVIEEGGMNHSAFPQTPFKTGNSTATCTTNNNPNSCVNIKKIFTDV

[2] = target: human Kv1.3 protein with C-terminal FLAG and 10xHis tags (human) (UniProt P22001); experiment: ELISA, supernatant, dilution 50
Chain of human Kv1.3 protein with C-terminal FLAG and 10xHis tags (human) (P22001 other isoform, or with tags, fused parts or gaps): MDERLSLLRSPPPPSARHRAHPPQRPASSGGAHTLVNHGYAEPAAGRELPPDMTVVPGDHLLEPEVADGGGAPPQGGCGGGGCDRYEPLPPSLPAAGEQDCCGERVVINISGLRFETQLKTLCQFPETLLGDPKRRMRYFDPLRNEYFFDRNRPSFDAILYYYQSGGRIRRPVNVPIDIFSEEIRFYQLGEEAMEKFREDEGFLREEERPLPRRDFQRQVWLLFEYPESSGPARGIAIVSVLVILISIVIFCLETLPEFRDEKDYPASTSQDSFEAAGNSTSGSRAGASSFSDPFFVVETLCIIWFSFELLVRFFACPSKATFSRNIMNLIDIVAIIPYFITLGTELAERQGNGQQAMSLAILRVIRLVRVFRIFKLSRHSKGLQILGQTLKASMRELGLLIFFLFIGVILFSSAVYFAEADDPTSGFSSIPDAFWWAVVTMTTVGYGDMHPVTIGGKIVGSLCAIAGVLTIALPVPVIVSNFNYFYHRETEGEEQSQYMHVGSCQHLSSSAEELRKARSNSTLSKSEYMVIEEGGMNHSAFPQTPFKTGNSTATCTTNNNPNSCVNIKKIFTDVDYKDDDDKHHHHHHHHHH

[3] = target: human Kv1.3 protein with C-terminal FLAG and 10xHis tags (human) (UniProt P22001); experiment: ELISA, supernatant, dilution 250
[4] = target: human Kv1.3 protein with C-terminal FLAG and 10xHis tags (human) (UniProt P22001); experiment: ELISA, supernatant, dilution 1250
[5] = target: human Kv1.3 protein with C-terminal FLAG and 10xHis tags (human) (UniProt P22001); experiment: ELISA, supernatant, dilution 6250

| Binder | IC50, dose-response of Kv1.3 current block (whole-cell patch clamp) [1] [nM] | ELISA signal [2] | ELISA signal [3] | ELISA signal [4] | ELISA signal [5] |
| --- | --- | --- | --- | --- | --- |
| B1 | 6 | 0.077 | 0.074 | 0.077 | 0.084 |
| B2 | 109 | – | – | – | – |
